# Test results published in patent publication US20030165488A1.
# Read-outs that look alike come from different tables or passages of the source.
# B1: hCaspase-12 (recombinant human caspase-12 containing the Ser-205 to Gly mutation), 6-His fusion protein expressed in E. coli (protein)
# chain: MADEKPSNGVLVHMVKLLIKTFLDGIFDDLMENNVLNTDEIHLIGKCLKFVVSNAENLVDDITETAQIAGKIFREHLWNSKKQLSSALLEIQGAQPSGKLKLCPHAHFHELKTKRADEIYPVMEKERRTCLALNIRNKEFNYLHNRNGSELDLLGMRDLLENLGYSVVIKENLTAQEMETALRQFAAHPEHQSSDSTFLVFMSHGILNGICGTKHWDQEPDVLHDDTIFEIFNNRNCQSLKDKPKVIIMQACRGNGAGIVWFTTDSGKASADTHGRLLQGNICNDAVTKAHVEKDFIAFKSSTPHNVSWRHETNGSVFISQIIYYFREYSWSHHLEEIFQKVQHSFETPNILTQLPTIERLSMTRYFYLFPGN
# B2: ΔCARD caspase-12 (RIK-5), 6-His fusion protein expressed in E. coli (protein)
# chain: SALLEIQGAQPSGKLKLCPHAHFHELKTKRADEIYPVMEKERRTCLALNIRNKEFNYLHNRNGSELDLLGMRDLLENLGYSVVIKENLTAQEMETALRQFAAHPEHQSSDSTFLVFMSHGILNGICGTKHWDQEPDVLHDDTIFEIFNNRNCQSLKDKPKVIIMQACRGNGAGIVWFTTDSGKASADTHGRLLQGNICNDAVTKAHVEKDFIAFKSSTPHNVSWRHETNGSVFISQIIYYFREYSWSHHLEEIFQKVQHSFETPNILTQLPTIERLSMTRYFYLFPGN
# Tests used:
# [1] = tested on: T1, hCaspase-12 (recombinant human caspase-12 containing the Ser-205 to Gly mutation), 6-His fusion protein expressed in E. coli
# T1 sequence: B1 chain
# [2] = tested on: T2, ΔCARD caspase-12 (RIK-5), 6-His fusion protein expressed in E. coli
# T2 sequence: B2 chain
# [3] = biological target: DEVD-R110 substrate (Homogeneous Caspase Assay, Roche Biochemicals); assay: cell-based or functional assay
# [4] = biological target: T3, DEVD-R110 substrate (Homogeneous Caspase Assay, Roche Biochemicals)
# T3 chain: DEVD
# [5] = biological target: T4, procaspase-3 immunoprecipitated from SH-EP cell lysates, P42574
# T4 chain: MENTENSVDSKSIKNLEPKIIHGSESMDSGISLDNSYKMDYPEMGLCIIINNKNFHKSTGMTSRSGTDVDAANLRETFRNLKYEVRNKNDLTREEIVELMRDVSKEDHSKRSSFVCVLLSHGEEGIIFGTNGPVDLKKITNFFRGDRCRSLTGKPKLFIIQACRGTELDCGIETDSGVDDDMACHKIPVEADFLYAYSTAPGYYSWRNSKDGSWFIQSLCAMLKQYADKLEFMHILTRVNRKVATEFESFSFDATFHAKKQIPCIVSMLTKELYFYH
molecule,measurement,setting,value
calpain II (Calbiochem),"cleavage of human caspase-12, Western blot",[1],calpain II cleaves both hCaspase-12 and the ?CARD variant and that this cleavage is calcium dependent
same,"cleavage of human caspase-12, Western blot",[2],calpain II cleaves both hCaspase-12 and the ?CARD variant and that this cleavage is calcium dependent
control (non-caspase protein) preparation,"Measured fluorescence intensity (RFU), free rhodamine-110 released from DEVD-R110",[3],31 RFU
B1,"Measured fluorescence intensity (RFU), free rhodamine-110 released from DEVD-R110",[4],807 for hCaspase-12
same,"procaspase-3 processing, Western blot with antibody to full-length caspase-3",[5],"when procaspase-3 was incubated with recombinant human caspase-12 or the ?CARD variant, lower molecular weight bands indicative of cleaved mature subunits were observed"
B2,"Measured fluorescence intensity (RFU), free rhodamine-110 released from DEVD-R110",[4],445 for ?CARD
